The source of these data is paper PMC2234471 (The Journal of General Physiology, 2003).

The target in the assay is purified recombinant vertebrate CaM ( ("vertebrate"), UniProt P0DP23 1-149). Description: native gel or EMSA. On the technique in general: A gel shift assay detects complexes by their altered migration in electrophoresis.

For the molecule AIRAVRILQFRLYKKKFKETLR [IQ2 peptide of KCNQ3 (481–503)], the binding result is “binds”.

For the molecule SIRAVCVMRFLVSKRKFKESLR [IQ2 peptide of KCNQ2 (508–530)], the binding result was “binds”.
